Blank lines part the entries; values can stand above or below the binder they belong to.
Columns and labels:
[1] = molecular target: T1, SIRPαV2 domain 1 (amino acids 31-148) with N-terminal GST tag (human, UniProt Q5TFQ8 30-148); experiment: crystal structure
T1 construct: also called domain 1 of the extracellular domain of human SIRPα-V2
Description: Protein was expressed in Origami B(DE3) cells and purified using standard protocols for GST-tagged proteins. Fractions were analyzed by SDS-PAGE and fractions containing the desired protein were pooled and concentrated to 24 mg/ml in 25 mM HEPES; 100 mM NaCl; 5% Glycerin; pH 7,0.

[2] = molecular target: T2, cynomolgus SIRPα (EGM_02252) extracellular domain + His-tag (cynomolgus monkey); experiment: SPR
T2 construct: SPR analyte; also called CySIRPα EGM_02252; cynoSIRPα; not shown: His-tag
T2 chain: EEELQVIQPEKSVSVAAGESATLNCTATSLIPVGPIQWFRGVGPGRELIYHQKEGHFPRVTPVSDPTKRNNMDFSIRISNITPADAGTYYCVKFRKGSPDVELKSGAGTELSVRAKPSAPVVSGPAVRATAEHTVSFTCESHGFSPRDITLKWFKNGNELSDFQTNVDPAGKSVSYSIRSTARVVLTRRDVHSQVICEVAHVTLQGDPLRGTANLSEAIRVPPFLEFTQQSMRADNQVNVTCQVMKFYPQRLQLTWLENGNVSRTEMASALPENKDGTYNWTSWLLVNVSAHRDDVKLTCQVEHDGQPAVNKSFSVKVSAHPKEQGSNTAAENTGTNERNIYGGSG
Outline: (§1)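 In HBS-EP+ (1×), captured antibodies are exposed to a twofold concentration series of SIRP extracellular domain carrying a His tag, using 300 s contact at 30 μl/min and a 600 s dissociation window.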

[3] = molecular target: T3, cynomolgus SIRPβ1 (XP_005568598) extracellular domain + His-tag (cynomolgus monkey); experiment: SPR
T3 construct: SPR analyte; also called Cyno SIRPβ1 XP_005568598; cynoSIRPβ1; not shown: His-tag
T3 chain: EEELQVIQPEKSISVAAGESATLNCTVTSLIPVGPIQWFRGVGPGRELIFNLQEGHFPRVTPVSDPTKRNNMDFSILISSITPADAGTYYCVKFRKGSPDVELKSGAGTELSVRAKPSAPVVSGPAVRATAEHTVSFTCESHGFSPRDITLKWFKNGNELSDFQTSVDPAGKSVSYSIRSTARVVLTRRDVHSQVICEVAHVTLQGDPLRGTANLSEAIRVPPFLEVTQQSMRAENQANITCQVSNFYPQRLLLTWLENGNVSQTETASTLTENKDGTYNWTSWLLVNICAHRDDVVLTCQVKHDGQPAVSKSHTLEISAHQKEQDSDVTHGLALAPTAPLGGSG
Outline: as §1

[4] = molecular target: T4, cynomolgus SIRPγ (XP_005568591) extracellular domain + His-tag (cynomolgus monkey, UniProt Q9P1W8 29-359 (human entry)); experiment: SPR
T4 construct: SPR analyte; also called Cyno SIRPγ XP_005568591; cynoSIRPγ; not shown: His-tag
T4 chain: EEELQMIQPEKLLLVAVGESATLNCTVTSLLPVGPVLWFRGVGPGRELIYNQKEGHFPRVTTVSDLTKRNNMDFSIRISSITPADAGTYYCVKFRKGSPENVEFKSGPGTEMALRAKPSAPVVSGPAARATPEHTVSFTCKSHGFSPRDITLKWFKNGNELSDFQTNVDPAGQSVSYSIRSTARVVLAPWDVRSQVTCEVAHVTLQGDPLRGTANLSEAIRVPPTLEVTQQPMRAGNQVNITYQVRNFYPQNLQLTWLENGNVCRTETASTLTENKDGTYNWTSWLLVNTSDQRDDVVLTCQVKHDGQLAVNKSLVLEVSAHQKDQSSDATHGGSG
Outline: as §1

[5] = molecular target: T5, cynomolgus SIRPα (NP_001271679) extracellular domain + His-tag (cynomolgus monkey); experiment: SPR, antibody captured, ECD-His analyte
T5 construct: SPR analyte; also called CySIRPα NP_001271679; cynoSIRPα; not shown: His-tag
T5 chain: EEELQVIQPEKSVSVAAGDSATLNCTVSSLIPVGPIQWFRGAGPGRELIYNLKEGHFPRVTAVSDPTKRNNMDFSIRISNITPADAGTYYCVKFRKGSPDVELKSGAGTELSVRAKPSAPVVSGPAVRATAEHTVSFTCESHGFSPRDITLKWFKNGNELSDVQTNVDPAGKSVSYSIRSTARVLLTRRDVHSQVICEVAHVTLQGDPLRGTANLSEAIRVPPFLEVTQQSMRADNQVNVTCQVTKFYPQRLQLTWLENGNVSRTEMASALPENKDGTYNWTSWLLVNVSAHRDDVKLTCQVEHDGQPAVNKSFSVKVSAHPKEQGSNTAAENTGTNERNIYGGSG
Outline: as §1

[6] = molecular target: T6, cynomolgus SIRPβ1v3 (XP_005568593) extracellular domain + His-tag (cynomolgus monkey); experiment: SPR, antibody captured, ECD-His analyte
T6 construct: SPR analyte; also called Cyno SIRPβ1v3 XP_005568593; cynoSIRPβ1v3; not shown: His-tag
T6 chain: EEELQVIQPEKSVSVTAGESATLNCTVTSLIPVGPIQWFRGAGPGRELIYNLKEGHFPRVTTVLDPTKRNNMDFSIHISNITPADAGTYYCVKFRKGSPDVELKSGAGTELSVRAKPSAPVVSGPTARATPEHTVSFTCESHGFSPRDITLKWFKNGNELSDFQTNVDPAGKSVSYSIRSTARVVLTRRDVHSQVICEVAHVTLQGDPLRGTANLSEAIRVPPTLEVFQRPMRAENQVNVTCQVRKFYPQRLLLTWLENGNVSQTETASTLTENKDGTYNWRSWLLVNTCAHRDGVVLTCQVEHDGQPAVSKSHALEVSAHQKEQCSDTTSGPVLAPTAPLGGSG
Outline: as §1

[7] = molecular target: T7, full-length human SIRPβL (NP_001129316.1) on cells (human, UniProt Q5TFQ8 30-398); experiment: flow cytometry, U937 SIRPα KO cells
T7 construct: on U937 SIRPα KO cells and Expi-CHO cells; also called βL WT; SIRPβ1v3
T7 sequence (Q5TFQ8 30-398): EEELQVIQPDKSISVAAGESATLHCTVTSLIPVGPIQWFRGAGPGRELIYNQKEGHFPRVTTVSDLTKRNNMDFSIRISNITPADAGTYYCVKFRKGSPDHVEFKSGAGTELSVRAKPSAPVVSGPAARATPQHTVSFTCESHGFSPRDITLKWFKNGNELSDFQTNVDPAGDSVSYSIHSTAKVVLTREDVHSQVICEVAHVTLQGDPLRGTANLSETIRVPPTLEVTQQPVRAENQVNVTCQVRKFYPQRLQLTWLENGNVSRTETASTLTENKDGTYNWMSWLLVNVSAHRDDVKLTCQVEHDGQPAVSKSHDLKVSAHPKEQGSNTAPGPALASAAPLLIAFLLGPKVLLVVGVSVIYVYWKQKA
Description: Antibody binding to cells expressing full-length human SIRPβ1 (NP_006056.2) and SIRPβL (NP_001129316.1) is evaluated by flow cytometry. SIRPβ1- or SIRPβL-expressing U937^{SIRPα KO} cells are blocked with donkey IgG and incubated on ice with increasing concentrations of antibodies for 60 minutes, washed and stained with AF647-conjugated donkey F(ab′)₂ anti-human IgG secondary reagent. Cells are washed, fixed, and analyzed by flow cytometry. Median fluorescent intensity is determined and used as a measure of antibody binding.

[8] = molecular target: T8, human SIRPβ1 extracellular domain + His-tag (NP_006056.2) (human, UniProt O00241 30-371); experiment: SPR, Ab captured, ECD-His analyte
T8 construct: also called hSIRPβ1; HuSIRPβ1
T8 sequence (O00241 other isoform, or with tags, fused parts or gaps): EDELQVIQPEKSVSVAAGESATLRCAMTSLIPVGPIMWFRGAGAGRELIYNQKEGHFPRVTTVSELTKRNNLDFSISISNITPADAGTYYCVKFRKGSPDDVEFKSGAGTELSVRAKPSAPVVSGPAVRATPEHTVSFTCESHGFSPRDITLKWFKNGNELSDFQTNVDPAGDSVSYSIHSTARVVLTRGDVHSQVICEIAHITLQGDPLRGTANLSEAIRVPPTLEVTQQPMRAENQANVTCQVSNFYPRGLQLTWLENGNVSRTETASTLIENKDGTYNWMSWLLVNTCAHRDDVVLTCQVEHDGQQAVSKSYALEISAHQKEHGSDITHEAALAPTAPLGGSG
Outline: as §1

[9] = molecular target: T9, human SIRPβL/SIRPβ1v3 extracellular domain + His-tag (NP_001129316.1) (human, UniProt Q5TFQ8 30-371); experiment: SPR, Ab captured, ECD-His analyte
T9 construct: also called hSIRPβ1v3; HuSIRPβ1v3
T9 sequence (Q5TFQ8 other isoform, or with tags, fused parts or gaps): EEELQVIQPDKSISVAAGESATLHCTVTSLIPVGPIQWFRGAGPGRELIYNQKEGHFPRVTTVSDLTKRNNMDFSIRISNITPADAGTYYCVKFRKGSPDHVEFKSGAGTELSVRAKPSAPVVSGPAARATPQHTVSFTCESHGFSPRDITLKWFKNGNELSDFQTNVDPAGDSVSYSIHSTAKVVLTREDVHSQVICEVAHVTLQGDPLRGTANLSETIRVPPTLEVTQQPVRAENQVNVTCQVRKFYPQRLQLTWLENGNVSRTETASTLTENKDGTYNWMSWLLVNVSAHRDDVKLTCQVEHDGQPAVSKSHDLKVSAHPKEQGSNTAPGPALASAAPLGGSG
Outline: as §1

[10] = molecular target: T10, human SIRPγ extracellular domain + His-tag (NP_061026.2) (human, UniProt Q9P1W8 29-360); experiment: SPR, Ab captured, ECD-His analyte
T10 construct: also called hSIRPγ; HuSIRPγ
T10 sequence (Q9P1W8 29-360): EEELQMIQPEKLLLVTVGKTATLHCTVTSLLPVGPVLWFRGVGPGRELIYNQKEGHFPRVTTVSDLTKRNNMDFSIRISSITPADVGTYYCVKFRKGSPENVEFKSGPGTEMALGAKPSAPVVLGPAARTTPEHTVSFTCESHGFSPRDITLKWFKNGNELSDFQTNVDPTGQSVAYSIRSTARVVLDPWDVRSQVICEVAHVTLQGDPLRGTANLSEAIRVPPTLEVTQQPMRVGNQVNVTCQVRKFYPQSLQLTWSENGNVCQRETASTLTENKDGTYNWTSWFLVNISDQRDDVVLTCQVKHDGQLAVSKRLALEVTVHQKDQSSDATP
Outline: as §1

[11] = molecular target: T11, mouse SIRPα extracellular domain + His-tag (NP_031573) (mouse, UniProt P97797 32-373); experiment: SPR, Ab captured, ECD-His analyte
T11 chain: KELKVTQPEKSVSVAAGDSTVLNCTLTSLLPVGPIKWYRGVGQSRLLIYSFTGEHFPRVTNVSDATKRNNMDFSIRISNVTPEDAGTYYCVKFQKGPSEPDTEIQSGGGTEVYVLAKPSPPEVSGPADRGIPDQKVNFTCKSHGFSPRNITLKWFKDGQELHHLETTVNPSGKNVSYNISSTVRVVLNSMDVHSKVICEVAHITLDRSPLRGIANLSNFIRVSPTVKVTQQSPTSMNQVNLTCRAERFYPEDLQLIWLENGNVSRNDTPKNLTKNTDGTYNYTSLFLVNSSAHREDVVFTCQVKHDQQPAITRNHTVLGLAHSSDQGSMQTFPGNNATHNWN
Description: (§2) The binding affinity of anti-SIRPα antibodies to the various SIRPα analytes is determined by surface plasmon resonance (SPR) using a ProteOn XPR36 (Bio-Rad). The running buffer for this experiment and all dilutions (except where stated) are done in 1×HBS-EP+. […] The sensorchip is deactivated with 1M ethanolamine HCl for 420 sec at a flowrate of 10 μl/min.
(§3) The analyte is injected over the captured antibody for 300 sec at a flowrate of 30 μl/min. The dissociation is done for 600 sec. Two-fold serial dilutions of each SIRP protein (Extracellular Domain+His-Tag) are injected as analyte with the highest concentrations indicated in table 36 below.

[12] = molecular target: T12, cynomolgus SIRPα extracellular domain + His-tag (NP_001271679) (cynomolgus monkey); experiment: SPR, Ab captured, ECD-His analyte
T12 construct: also called CySIRPα NP_001271679; cynoSIRPα
T12 chain: T5 chain
Description: as §2, §3

[13] = molecular target: T13, cynomolgus SIRPα extracellular domain + His-tag (EGM_02252) (cynomolgus monkey); experiment: SPR, Ab captured, ECD-His analyte
T13 construct: also called CySIRPα EGM_02252; cynoSIRPα
T13 chain: T2 chain
Description: as §2, §3

[14] = molecular target: T14, cynomolgus SIRPβ1v3 extracellular domain + His-tag (XP_005568593) (cynomolgus monkey); experiment: SPR, Ab captured, ECD-His analyte
T14 construct: also called Cyno SIRPβ1v3; cynoSIRPβ1v3
T14 chain: T6 chain
Description: as §2, §3

[15] = molecular target: T15, full-length human SIRPγ (NP_061026.2) on cells (human, UniProt Q9P1W8 29-387); experiment: flow cytometry, primary human CD3+ T cells
T15 construct: on CHO and Expi-CHO cells; endogenous on primary human CD3+ T cells; also called γ WT
T15 sequence (Q9P1W8 29-387): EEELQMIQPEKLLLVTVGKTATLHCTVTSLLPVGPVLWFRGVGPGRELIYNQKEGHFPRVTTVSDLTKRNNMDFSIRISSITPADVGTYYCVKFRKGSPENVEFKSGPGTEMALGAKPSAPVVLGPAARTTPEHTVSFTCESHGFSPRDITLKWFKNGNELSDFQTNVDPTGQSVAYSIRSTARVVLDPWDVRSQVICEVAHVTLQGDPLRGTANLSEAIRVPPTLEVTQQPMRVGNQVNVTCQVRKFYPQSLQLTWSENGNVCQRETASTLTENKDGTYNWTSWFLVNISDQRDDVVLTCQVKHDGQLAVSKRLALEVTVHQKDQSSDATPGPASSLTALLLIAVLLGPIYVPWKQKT
Description: Antibody binding to primary human T cells expressing endogenous SIRPγ is evaluated by flow cytometry. Human peripheral blood mononuclear cells (PBMCs) are blocked with donkey IgG and incubated on ice with increasing concentrations of antibody for 60 minutes, washed and stained with AF647-conjugated donkey F(ab′)₂ anti-human IgG secondary reagent. […] Cells are washed, fixed, and analyzed by flow cytometry. Median fluorescent intensity of CD3+ gated population is determined and used as a measure of antibody binding.

T1 sequence (Q5TFQ8 other isoform, or with tags, fused parts or gaps): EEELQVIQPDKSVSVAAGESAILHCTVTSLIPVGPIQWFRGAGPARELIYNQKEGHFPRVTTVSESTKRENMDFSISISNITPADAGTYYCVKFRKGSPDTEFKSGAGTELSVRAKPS

binding result [1]: binds
B1: Fab fragment of Antibody A (Fab, V domains shown)
VH: EVQLVESGGGLVQPGGSLRLSCAASGFTLSSYDMHWVRQATGKGLEWVSAIGTAGDTYYTGSVKGRFTISRENAKNSLYLQMNSLRAGDTAVYYCVRGGVWDDAFDIWGQGTMVTVSS
VL: DIQMTQSPSSLSASVGDRVTITCRASQDINNYLAWFQQKPGKAPKSLIYTASSLHSGVPSKFSGSGSGTDFTLTISSLQPEDFATYYCQQYVSYPYTFGQGTKLEIK
notes: Fab; also called Fab of Antibody A

binding result [2]: no binding (tested: 1000 nM) | binding result [3]: no binding (tested: 1000 nM) | binding result [4]: no binding (tested: 1000 nM) | Kd [5]: 50.3 nM | Kd [6]: 30.3 nM
B2: Antibody E16 (antibody, human IgG1, kappa, L234A L235A, V domains shown)
VH: QVQLQESGPGLVRPSETLSLTCTVSGGSIRNYYWSWIRQPPGKGLEWIGFIYYNGRTFYNPSLKSRVTISLDTSKNQFSLKMTSVTAADTAVYYCARVRAYSGIGLDGTDVWGQGTTVTVSS
VL: DIVMTQSPLSLPVTPGEPASISCKSSQSLLYSNAYNYLDWYLQRPGQSPQLLIYLGSNRASGVPDRFSGSGSGTDFTLKISRVEAEDVGVYYCMQALQTPLTFGGGTKVEIKR

binding result [7]: no binding | Kd [8]: 84 nM | binding result [9]: no binding (tested: 100 nM) | binding result [10]: no binding (tested: 1000 nM) | binding result [11]: no binding | Kd [12]: 506 nM | Kd [13]: 230 nM | Kd [14]: 227 nM | binding result [15]: no binding
B3: Antibody F (antibody, human IgG4 S228P, kappa)
heavy: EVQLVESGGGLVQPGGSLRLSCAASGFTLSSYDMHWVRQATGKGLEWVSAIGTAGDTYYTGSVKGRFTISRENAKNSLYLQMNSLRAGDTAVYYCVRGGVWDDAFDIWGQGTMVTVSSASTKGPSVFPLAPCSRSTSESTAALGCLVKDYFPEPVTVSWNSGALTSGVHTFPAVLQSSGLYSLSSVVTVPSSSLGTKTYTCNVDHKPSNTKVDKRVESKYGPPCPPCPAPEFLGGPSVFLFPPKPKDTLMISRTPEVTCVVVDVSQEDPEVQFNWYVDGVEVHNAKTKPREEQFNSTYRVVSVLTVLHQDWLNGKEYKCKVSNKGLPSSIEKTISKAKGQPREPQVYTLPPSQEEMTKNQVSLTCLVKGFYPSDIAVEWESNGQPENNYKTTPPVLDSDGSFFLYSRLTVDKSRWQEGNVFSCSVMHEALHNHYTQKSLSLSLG
light: DIQMTQSPSSLSASVGDRVTITCRASQDINNYLAWFQQKPGKAPKSLIYTASSLHSGVPSKFSGSGSGTDFTLTISSLQPEDFATYYCQQYVSYPYTFGQGTKLEIKRTVAAPSVFIFPPSDEQLKSGTASVVCLLNNFYPREAKVQWKVDNALQSGNSQESVTEQDSKDSTYSLSSTLTLSKADYEKHKVYACEVTHQGLSSPVTKSFNRGEC
